B1: BcUGT1 (Iris domestica) (protein)
chain: MQLKESVVLFPSMGMGHIIPMVELAKLFIGHGFSVTIVDVEPPFDDSTTKGPFISRISSEYPSISFHRLPKVIPPATSRPPVFAFIETLRLACPHLLDFLKTIRSTTNVRALVLDMFCTPALDVADELGLPSYFFFSSSASILAAFLFFPILQDKLDGNFRDLGSSPIHFPGLPPVPASDLPTQMQERGEANDGIMFHFNSYPRATGIMINTLEWLEKRAIEVLANGECLPDRTMPPVYCIGPLVATGSNEGEGEGEGEKHECLAWLDAQPEKSVVFLCFGSMGSFSAEQVKEIAIGLERSGQRFLWVVRSPPLKDDPAARHGARPEPDLEALLPEGFLERTKEKGMVVKSWAPQAAVLAHGSVGGFVSHCGWNSTLEAVSSGVPIIAWPLYAEQRMNKVFLVEEAKLAVAMEGYNKDVVSAEEVEKKIRWLMESEDGKALKDRAVEAKEKAVAAWKQEGSSFLAWLELVRAVRKEA
notes: full ORF in pCold-TF, E. coli, His-tag + trigger factor fusion (~105 kDa; UGT ~53 kDa), Ni-NTA
B2: BcUGT8 (Iris domestica) (protein)
chain: MEFTQSVILYPSLGMGHLIPTLELAKLFIDQGFSVTIVVIDSPPSDTSSTMDSFISRASSAYPSLSFHRLPKVAPPASKLPMVFLSETVRLANASLLDFLSSKKSTSDIRAVVLDMFCSASLDIVEELHLPSYFFFSSSASALAACLFFPTLQSQLAGSFRDLGSSPVHFPGLPPIPASDLPADVQVRGESYDAALAHFVRLPRADGIMINTFESLEKRAVRALVDGVCVPGRATPPVYCIGPLIADGSDGGERHECLAWLDAQPERSVVFLCFGSMGSFSTEQLKETAGGLERSGQRFLWVVRSPPSDPAYPFGPRAETELEALLPEGFLERTRERGMVLESWAPQAAVLAHRSVGGFVSHCGWNSTLEAVCSGVPMLGWPLYAEQRMNRVSLVEEAKVAVAMEGCHNGLVSADEVETKIRRLMESRALGERMAATKERAVAARTEGGESTLALLELVRALRKATPGTGA
notes: as for B1
B3: BcUGT5 (Iris domestica) (protein)
chain: MQLKESVVLFPSVGMGHLIPMVELAKLFIGHGFSVTIVVVEPPFDVSTTNHPFISRVSSEYPSISFHRLPKVIPPATSRPPVFAFIETLRLACPHLLDFLKTIRSTSNVRALVLDMFCTSALDVADELGLPSYFFFASGASTLAAFLLLPTLQSKLDGNFRDLGSSPVHFPGLPPVPASDLLIHVQERGEANDEIMFHFKRLPRAKGIMINTMEWLEKRAVEALANGECLPDRTMPPVYCIGPLVASGSNGGGGEGERHECLAWLDAQPEKSVVFLCFGSMGSFSAEQVKEMAVGLERSGQRFLWVVRSPPLKDDPAARPGARPEPDLEALLPEGFLERTKGKGMVVKSWAPQAAVLAHGSVGGFVSHCGWNSTLEAVSSGVPIIAWPLYAEQRMNKVFLVEEAKLAVAMEGYNKDVVSAEEVEKKIRWLMESEDGKALKDRAVEAKEKAVAAWKQEGSSSLAWLELVRAVRKEA
notes: as for B1
B4: BcUGT4 (Iris domestica) (protein)
chain: MQLKESVVLFPSVGMGHLIPMVELAKLFIGHGFSVTIVVVEPPFDVSTTNHPFISRVSSEYPSISFHRLPKVVPPATFRPPVIVLFETLRLACPQLLDFLKTIRSTSNVRALVLDMFCTSALDVADELGLPSYFFFASGASTLAAFLLFPTLQSKLDGNFRDLGSSPVHFPGLPPVPASDLPTQMQERGEANDGIMFHFKRLPRAKGIMINTPEWLEKRAVEALANGECLPDRTMPPVYCIGPLVASGSNGGGGGEGERHECLAWLDAQPKKSVVFLCFGSMGSFSAEQVKEMAVGLERSGQRFLWVVRSPPLKDDPAARPGARPEPDLEALLPEGFLERTKGKGMVVKSWAPQAAVLAHGSVGGFVSHCGWNSTLEAVSSGVPIIAWPLYAEQRMNKVFLVEEAKLAVAMEGYNKDVVSAEEVEKKIRWLMESEDGKALKDRAVEAKEKAVAAWKQEGSSFLAWLELVRAVRKEA
notes: as for B1
B5: BcUGT7 (Iris domestica) (protein)
chain: MQLKESVVLFPSVGMGHLIPMVELAKLFIGHGFSVTIVVVEPPFDASTTSGPFISRVSSEYPSISFHRLPKVVPPATSKPPMIVIYETLRLACPHLLDFLKTIRSTAKVRALVLDMFCTSALDVADELGLPSYFFFASGASALAAYLLLPTLQSKLDGNFRDLGSSPVHFPGVPPVPASDLLTHVQERGESNDGIMLHFKRFPRAKGIMINTPEWLEKRAVEALANGECLPDRTMPPVYCIGPLVANGSNGGEGGGERHECLAWLDAQPEKSVVFLCFGSLGSFSGEQLKEMAIGLERSGQLFLWVVRSPPLKDDPAARPGARPEPDLEALLPEGFLERTKGKGMVVKSWAPQAAVLAHGSVGGFVSHCGWNSTLEAVSSGVPIIAWPLYAEQRMNKVFLVEEAKVAVAMEGYDKDIVSAEEVEKKIRWLMESKDGKAMKDRAVEAKEKAVAAWKEDGSSSLAWLELERALRMGA
notes: as for B1
B6: BcUGT2 (Iris domestica) (protein)
chain: B1 chain with E344G, N416D, A440V, L441M, W456R, K457M, E459D, F463S

Residue numbers refer to the chain shown, from its start.

Substrate in one data set: COc1cc(-c2coc3cc(O)c(OC)c(O)c3c2=O)cc(O)c1OC
The data set can be described thus: HPLC glucosylation assay. It is filed as biochemical, Iris domestica. The note with it: 2 mM UDP-glucose, 1 mM DTT, 50 mM PBS, pH 8.0, 30°C, 10 min.
As to B1, the Km (as a rule, the concentration of substrate that gives half-maximal velocity) came out at 210 ± 13 µM; the kcat (as a rule, the maximal rate divided by the concentration of active sites) is 58.88 ± 3.24 s⁻¹; the kcat/Km (usually the turnover number divided by the Michaelis constant) stood at 280000 M⁻¹ s⁻¹.
For B2, in that order: 1423 ± 21 µM, 11.97 ± 1.31 s⁻¹ and 8410 M⁻¹ s⁻¹.
With B3, the Michaelis-Menten constant (Km) came out at 121 ± 9 µM, the kcat is 296.52 ± 11.8 s⁻¹ and the kcat/Km is 2.45e+06 M⁻¹ s⁻¹.
For B4 the same measures were 190 ± 7 µM, 57.23 ± 18.21 s⁻¹ and 301000 M⁻¹ s⁻¹.
On to B5, for which the Km was found to be 894 ± 11 µM, the kcat was determined as 17.73 ± 9.89 s⁻¹ and the kcat/Km came to 19800 M⁻¹ s⁻¹.

Substrate in another data set: COc1c(O)cc2occ(-c3ccc(O)cc3)c(=O)c2c1O
The data set can be described thus: purified protein. The conditions noted are these: 2 mM UDP-glucose, 1 mM DTT, 50 mM PBS, pH 8.0, 30°C, 10 min.
In the case of B1, the Km was 592 ± 49 µM, the kcat amounted to 57.29 ± 4.94 s⁻¹ and the kcat/Km was found to be 96800 M⁻¹ s⁻¹.
As for B6, the Km was found to be 392 ± 7 µM, the kcat was determined as 70.10 ± 9.86 s⁻¹ and the kcat/Km came to 179000 M⁻¹ s⁻¹.
On to B3, for which the Km came out at 201 ± 15 µM, the kcat amounted to 116.03 ± 6.98 s⁻¹ and the kcat/Km amounted to 577000 M⁻¹ s⁻¹.
For B4, in that order: 115 ± 23 µM, 155.18 ± 12.26 s⁻¹ and 1.35e+06 M⁻¹ s⁻¹.
With B5, the Km was determined as 1269 ± 9 µM, the kcat is 15.86 ± 7.53 s⁻¹ and the kcat/Km was found to be 19800 M⁻¹ s⁻¹.
